Consider two molecules from publication PMC3998727 (Nature medicine, 2012).

Assay [1] deals with DN kidney. The assay is described as follows: Advanced diabetic nephropathy, captopril and THR–123 combination. The class given is in vivo, mice. As to conditions: eight months DN.
The test system of assay [2] is DN kidney. Briefly: Streptozotocin–induced diabetic nephropathy. Format: in vivo, CD–1 mice.
In assay [3] the test system is tubular epithelial cells (TECs; NP–1 cells). The assay is described as follows: Hypoxia induced apoptosis of TECs. Format: cell-based. The conditions noted are these: Annexin V; NP–1 cells in hypoxia.
The subject of the next assay is TECs (NP–1 cells). Briefly: Reversal of TGF-β and EGF induced EMT in TECs. As to conditions: TECs after 48 hours of incubation with TGF-β and EGF. The class given is cell-based.

In the case of `C[C@H](CS)C(=O)N1CCC[C@H]1C(=O)O` [CPR, captopril], the EMT program entry with DN kidney [1] was “inhibited”. The macrophage infiltration entry with DN kidney [1] (Mac–1) is “inhibited macrophage infiltration”.

B1: BMP7: Bone morphogenetic protein–7, member of the TGF-β superfamily, natural ligand of Alk3 (protein, UniProt P18075 293-431, looked up)
Bone morphogenetic protein 7: STGSKQRSQNRSKTPKNQEALRMANVAENSSSDQRQACKKHELYVSFRDLGWQDWIIAPEGYAAYYCEGECAFPLNSYMNATNHAIVQTLVHFINPETVPKPCCAPTQLNAISVLYFDDSSNVILKKYRNMVVRACGCH
For the molecule B1, in the assay on DN kidney [2] (STZ–induced six month DN, BMP7 1–6 months, THR–123 5–6 months treatment), the mesangium expansion entry is reported as “inhibited mesangium expansion”. Further, in the assay with DN kidney [2] (six months DN), the “induction of an EMT program” value is given as “inhibited induction of an EMT program” and the “renal dysfunction (blood urea nitrogen)” value is on record as “significantly reversed renal dysfunction”. In addition, the macrophage infiltration result in the assay on DN kidney [2] (six months DN, Mac–1, F4/80) is “reduced macrophage infiltration”. Moreover, the “hypoxia induced apoptosis of TECs” value in assay [3] is recorded as “inhibited”. The “reversal of TGF-β–induced EMT” value with TECs (NP–1 cells) is reported as “reversed”.
